Assay results published in the supplement of paper PMC11246515.
± gives the standard deviation of the averaged measurements.

Experiment: total protein half-life in vivo (active degradation + dilution); higher = more stable protein
[1] = E. coli NCM3722 delta-lon, growth: N-lim chemostat, doubling time 6 h
[2] = E. coli NCM3722 delta-smpB, growth: N-lim chemostat, doubling time 6 h
[3] = wild type E. coli NCM3722, growth: C-lim chemostat, doubling time 3 h
[4] = wild type E. coli NCM3722, growth: C-lim chemostat, doubling time 6 h
[5] = wild type E. coli NCM3722, growth: C-lim chemostat, doubling time 12 h
[6] = wild type E. coli NCM3722, growth: P-lim chemostat, doubling time 6 h
[7] = wild type E. coli NCM3722, growth: P-lim chemostat, doubling time 12 h
[8] = E. coli NCM3722 delta-clpP delta-lon delta-hslV, growth: N-lim chemostat, doubling time 6 h
[9] = E. coli NCM3722 delta-clpP, growth: N-lim chemostat, doubling time 6 h
[10] = E. coli NCM3722 delta-hslV, growth: N-lim chemostat, doubling time 6 h
[11] = wild type E. coli NCM3722, growth: N-lim chemostat, doubling time 6 h
[12] = wild type E. coli NCM3722, growth: N-lim chemostat, doubling time 12 h

| Sequence | total protein half-life in vivo [1] [h] | total protein half-life in vivo [2] [h] | total protein half-life in vivo [3] [h] | total protein half-life in vivo [4] [h] | total protein half-life in vivo [5] [h] | total protein half-life in vivo [6] [h] | total protein half-life in vivo [7] [h] | total protein half-life in vivo [8] [h] | total protein half-life in vivo [9] [h] | total protein half-life in vivo [10] [h] | total protein half-life in vivo [11] [h] | total protein half-life in vivo [12] [h] |
| --- | --- | --- | --- | --- | --- | --- | --- | --- | --- | --- | --- | --- |
| MPTKMRTTRNLLLMATLLGSALFARAAEKEMTIGAIYLDTQGYYAGVRQGVQDAAKDSSVQVQLIETNAQGDISKESTFVDTLVARNVDAIILSAVSENGSSRTVRRASEAGIPVICYNTCINQKGVDKYVSAYLVGDPLEFGKKLGNAAADYFIANKIDQPKIAVINCEAFEVCVQRRKGFEEVLKSRVPGAQIVANQEGTVLDKAISVGEKLIISTPDLNAIMGESGGATLGAVKAVRNQNQAGKIAVFGSDMTTEIAQELENNQVLKAVVDISGKKMGNAVFAQTLKVINKQADGEKVIQVPIDLYTKTEDGKQWLATHVDGLP | > 8 | 5.48 ± 2.3 | 3.51 ± 0.069 | 6.18 ± 0.59 | 10.2 ± 0.31 | > 8 | 13.19 ± 0.1 | – | – | – | – | – |
| MSESLRIIFAGTPDFAARHLDALLSSGHNVVGVFTQPDRPAGRGKKLMPSPVKVLAEEKGLPVFQPVSLRPQENQQLVAELQADVMVVVAYGLILPKAVLEMPRLGCINVHGSLLPRWRGAAPIQRSLWAGDAETGVTIMQMDVGLDTGDMLYKLSCPITAEDTSGTLYDKLAELGPQGLITTLKQLADGTAKPEVQDETLVTYAEKLSKEEARIDWSLSAAQLERCIRAFNPWPMSWLEIEGQPVKVWKASVIDTATNAAPGTILEANKQGIQVATGDGILNLLSLQPAGKKAMSAQDLLNSRREWFVPGNRLV | 6.55 ± 0.13 | 4.49 ± 0.29 | 3.118 ± 0.012 | 5.91 ± 0.49 | 8.28 ± 1.2 | 5.62 ± 0.28 | 10.1 ± 0.96 | 5.19 ± 0.35 | 4.68 ± 0.25 | 5.38 ± 1 | 4.84 ± 0.38 | 7.62 ± 0.9 |
| MTSSLPCGQTSLLLQMTERLALSDAHFRRISQLIYQRAGIVLADHKRDMVYNRLVRRLRSLGLTDFGHYLNLLESNQHSGEWQAFINSLTTNLTAFFREAHHFPLLADHARRRSGEYRVWSAAASTGEEPYSIAMTLADTLGTAPGRWKVFASDIDTEVLEKARSGIYRHEELKNLTPQQLQRYFMRGTGPHEGLVRVRQELANYVDFAPLNLLAKQYTVPGPFDAIFCRNVMIYFDQTTQQEILRRFVPLLKPDGLLFAGHSENFSHLERRFTLRGQTVYALSKD | – | – | 1.34 | – | 3.42 | – | – | – | 6.56 | – | – | – |
| MAYLVAVTACVSGVAHTYMAAERLEKLCLLEKWGVSIETQGALGTENRLADEDIRRADVALLITDIELAGAERFEHCRYVQCSIYAFLREPQRVMSAVRKVLSAPQQTHLILE | – | – | – | – | – | – | – | 4.98 | – | – | – | – |
| MRFLLGVLMLMISGSALATIDVLQFKDEAQEQQFRQLTEELRCPKCQNNSIADSNSMIATDLRQKVYELMQEGKSKKEIVDYMVARYGNFVTYDPPLTPLTVLLWVLPVVAIGIGGWVIYARSRRRVRVVPEAFPEQSVPEGKRAGYVVYLPGIVVALIVAGVSYYQTGNYQQVKIWQQATAQAPALLDRALDPKADPLNEEEMSRLALGMRTQLQKNPGDIEGWIMLGRVGMALGNASIATDAYATAYRLDPKNSDAALGYAEALTRSSDPNDNRLGGELLRQLVRTDHSNIRVLSMYAFNAFEQQRFGEAVAAWEMMLKLLPANDTRRAVIERSIAQAMQHLSPQESK [P0ABM9] | – | 3.32 ± 0.057 | 3.26 ± 0.15 | – | 9.451 ± 0.016 | 3.91 ± 0.59 | 6.58 ± 1.2 | 3.85 ± 0.42 | – | 3.5 ± 0.5 | 3.8 ± 0.21 | 5.979 ± 0.034 |
| MKTKVAAIYGKRDVRLRVFELPEITDNELLVSVISDSVCLSTWKAALLGSEHKRVPDDLENHPVITGHECAGVIVEVGKNLTGKYKKGQRFVLQPAMGLPSGYSAGYSYEYFGGNATYMIIPEIAINLGCVLPYHGSYFAAASLAEPMCCIIGAYHANYHTTQYVYEHRMGVKPGGNIALLACAGPMGIGAIDYAINGGIQPSRVVVVDIDDKRLAQVQKLLPVELAASKGIELVYVNTKGMSDPVQMLRALTGDAGFDDIFVYAAVPAVVEMADELLAEDGCLNFFAGPTDKNFKVPFNFYNVHYNSTHVVGTSGGSTDDMKEAIALSATGQLQPSFMVTHIGGLDAVPETVLNLPDIPGGKKLIYNGVTMPLTAIADFAEKGKTDPLFKELARLVEETHGIWNEQAEKYLLAQFGVDIGEAAQ | – | – | – | – | – | – | – | 6.04 ± 0.11 | – | – | – | – |
| MSKATEQNDKLKRAIIISAVLHVILFAALIWSSFDENIEASAGGGGGSSIDAVMVDSGAVVEQYKRMQSQESSAKRSDEQRKMKEQQAAEELREKQAAEQERLKQLEKERLAAQEQKKQAEEAAKQAELKQKQAEEAAAKAAADAKAKAEADAKAAEEAAKKAAADAKKKAEAEAAKAAAEAQKKAEAAAAALKKKAEAAEAAAAEARKKAATEAAEKAKAEAEKKAAAEKAAADKKAAAEKAAADKKAAEKAAAEKAAADKKAAAEKAAADKKAAAAKAAAEKAAAAKAAAEADDIFGELSSGKNAPKTGGGAKGNNASPAGSGNTKNNGASGADINNYAGQIKSAIESKFYDASSYAGKTCTLRIKLAPDGMLLDIKPEGGDPALCQAALAAAKLAKIPKPPSQAVYEVFKNAPLDFKP | – | 5.79 ± 0.58 | 3.23 ± 0.71 | 6.022 ± 0.019 | 11.6 ± 1.8 | 5.49 ± 0.21 | 12.3 ± 0.83 | – | 6.28 ± 0.72 | 6.23 ± 0.21 | 5.85 ± 0.2 | 12.7 ± 1.3 |
| MKKKIESYQGAAGGWGAVKSVANAVRKQMDIRQDVIAMFDMNKPEGFDCPGCAWPDPKHSASFDICENGAKAIAWEVTDKQVNASFFAENTVQSLLTWGDHELEAAGRLTQPLKYDAVSDCYKPLSWQQAFDEIGARLQSYSDPNQVEFYTSGRTSNEAAFLYQLFAREYGSNNFPDCSNMCHEPTSVGLAASIGVGKGTVLLEDFEKCDLVICIGHNPGTNHPRMLTSLRALVKRGAKMIAINPLQERGLERFTAPQNPFEMLTNSETQLASAYYNVRIGGDMALLKGMMRLLIERDDAASAAGRPSLLDDEFIQTHTVGFDELRRDVLNSEWKDIERISGLSQTQIAELADAYAAAERTIICYGMGITQHEHGTQNVQQLVNLLLMKGNIGKPGAGICPLRGHSNVQGDRTVGITEKPSAEFLARLGERYGFTPPHAPGHAAIASMQAICTGQARALICMGGNFALAMPDREASAVPLTQLDLAVHVATKLNRSHLLTARHSYILPVLGRSEIDMQKNGAQAVTVEDSMSMIHASRGVLKPAGVMLKSECAVVAGIAQAALPQSVVAWEYLVEDYDRIRNDIEAVLPEFADYNQRIRHPGGFHLINAAAERRWMTPSGKANFITSKGLLEDPSSAFNSKLVMATVRSHDQYNTTIYGMDDRYRGVFGQRDVVFMSAKQAKICRVKNGERVNLIALTPDGKRSSRRMDRLKVVIYPMADRSLVTYFPESNHMLTLDNHDPLSGIPGYKSIPVELEPSN | 4.01 ± 0.03 | 3.52 ± 0.085 | 2.35 ± 0.34 | 2.95 ± 0.35 | 3.6 ± 0.45 | 3.7 ± 0.2 | 4.31 ± 0.17 | 5.48 ± 0.53 | 3.76 ± 1.3 | 4.01 ± 0.19 | 3.5 ± 0.52 | 4.87 ± 1.3 |
| MQTQIKVRGYHLDVYQHVNNARYLEFLEEARWDGLENSDSFQWMTAHNIAFVVVNININYRRPAVLSDLLTITSQLQQLNGKSGILSQVITLEPEGQVVADALITFVCIDLKTQKALALEGELREKLEQMVK | – | 3.35 ± 0.049 | 3.22 ± 0.17 | 5.29 ± 0.48 | 7.87 ± 0.63 | 5.365 ± 0.043 | 9.67 ± 0.54 | 4.69 ± 0.88 | 3.29 ± 0.61 | 3.46 ± 0.25 | 3.29 ± 0.11 | 4.77 ± 0.72 |
| MAVAMDNAILENILRQVRPLIGQGKVADYIPALATVDGSRLGIAICTVDGQLFQAGDAQERFSIQSISKVLSLVVAMRHYSEEEIWQRVGKDPSGSPFNSLVQLEMEQGIPRNPFINAGALVVCDMLQGRLSAPRQRMLEVVRGLSGVSDISYDTVVARSEFEHSARNAAIAWLMKSFGNFHHDVTTVLQNYFHYCALKMSCVELARTFVFLANQGKAIHIDEPVVTPMQARQINALMATSGMYQNAGEFAWRVGLPAKSGVGGGIVAIVPHEMAIAVWSPELDDAGNSLAGIAVLEQLTKQLGRSVY [P0A6W0] | – | 6.07 ± 0.46 | 3.12 ± 0.28 | – | 12.8 ± 0.64 | 5.82 ± 0.85 | 13.1 ± 0.95 | 5.51 ± 0.69 | 6.48 ± 0.19 | 6.52 ± 0.92 | 5.88 ± 1.1 | 12.2 ± 1.5 |
| MSEKHPGPLVVEGKLTDAERMKHESNYLRGTIAEDLNDGLTGGFKGDNFLLIRFHGMYQQDDRDIRAERAEQKLEPRHAMLLRCRLPGGVITTKQWQAIDKFAGENTIYGSIRLTNRQTFQFHGILKKNVKPVHQMLHSVGLDALATANDMNRNVLCTSNPYESQLHAEAYEWAKKISEHLLPRTRAYAEIWLDQEKVATTDEEPILGQTYLPRKFKTTVVIPPQNDIDLHANDMNFVAIAENGKLVGFNLLVGGGLSIEHGNKKTYARTASEFGYLPLEHTLAVAEAVVTTQRDWGNRTDRKNAKTKYTLERVGVETFKAEVERRAGIKFEPIRPYEFTGRGDRIGWVKGIDDNWHLTLFIENGRILDYPARPLKTGLLEIAKIHKGDFRITANQNLIIAGVPESEKAKIEKIAKESGLMNAVTPQRENSMACVSFPTCPLAMAEAERFLPSFIDNIDNLMAKHGVSDEHIVMRVTGCPNGCGRAMLAEVGLVGKAPGRYNLHLGGNRIGTRIPRMYKENITEPEILASLDELIGRWAKEREAGEGFGDFTVRAGIIRPVLDPARDLWD | 3.07 ± 0.14 | 2.55 ± 0.1 | 2.55 ± 0.13 | 4.1634 ± 0.0008 | 5.98 ± 0.51 | 3.91 ± 0.24 | 6.82 ± 0.1 | 4.99 ± 0.69 | 3.79 ± 0.29 | 2.52 ± 0.056 | 2.82 ± 0.28 | 3.73 ± 0.062 |
